± gives the uncertainty stated by the source.
Experiment: self-splicing fitness, log relative to wild type (ln ratio); higher = more splicing; Tetrahymena group I intron in knt gene, E. coli kanamycin selection, DiMSum; sequences stand for … in CUCUCU…GGAGGGAAAAGUUAUCAGGCAUGCACCUGGUAGCUAGUCUUUAAACCAAUAGAUUGCAUCGGUUUAAAAGGCAAGACCGUCAAAUUGCGGGAAAGGGGUCAACAGCCGUUCAGUACCAAGUCUCAGGGGAAACUUUGAGAUGGCCUUGCAAAGGGUAUGGUAAUAAGCUGACGGACAUGGUCCUAACCACGCAGCCAAGUCCUAAGUCAACAGAUCUUCUGUUGAUAUGGAUGCAGUUCACAGACUAAAUGUCGGUCGGGGAAGAUGUAUUCUUCUCAUAAGAUAUAGUCGGACCUCUCCUUAAUGGGAGCUAGCGGAUGAAGUGAUGCAACACUGGAGCCGCUGGGAACUAAUUUGUAUGCGAAAGUAUAUUGAUUAGUUUUGGAGUACUCGUGGUCG
Procedure, shortened: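 A randomised library covering all eight P1ex-region intron nucleotides was built with the intron in the knt kanamycin-resistance gene on pET-22b(+) and held in E. coli BL21(DE3). Cells were grown overnight at 37°C or 30°C on LB agar, with or without 25 μg/mL kanamycin, plus 100 μg/mL carbenicillin, 50 μM IPTG and 0.2% rhamnose, and pooled colonies were amplicon-sequenced on an Illumina HiSeq 2500. DiMSum fitness is the error-weighted combination of wild-type-normalised replicate fold changes, kanamycin versus none.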

| Sequence | self-splicing fitness (ln) (30 °C) | self-splicing fitness (ln) (37 °C) |
| --- | --- | --- |
| AACUAGCAAUAUUACGGAUU | -1.16 ± 0.088 | -0.792 ± 0.1 |
| AACUAGCAAUAUUACGGCCG | -0.725 ± 0.1 | 0.273 ± 0.13 |
| AACUAGCAAUAUUACGGGCA | -0.872 ± 0.079 | -0.13 ± 0.088 |
| AACUAGCAAUAUUACGGUCU | -0.472 ± 0.055 | 0.465 ± 0.07 |
| AACUAGCAAUAUUACGGUUU | -3.29 ± 0.12 | -2.62 ± 0.17 |
| AACUAGCAAUAUUACGUAGA | -1.76 ± 0.079 | -0.779 ± 0.11 |
| AACUAGCAAUAUUACGUCUU | 0.0966 ± 0.067 | 0.781 ± 0.083 |
| AACUAGCAAUAUUACGUUAC | -1.79 ± 0.13 | -1.96 ± 0.2 |
| AACUAGCAAUAUUACGUUAG | -3.12 ± 0.17 | -3.33 ± 0.26 |
| AACUAGCAAUAUUACGUUCA | -1.3 ± 0.1 | -0.728 ± 0.12 |
| AACUAGCAAUAUUACGUUCU | -1.55 ± 0.061 | -1.14 ± 0.079 |
| AAGAAGCAAUAUUACGAACG | -0.96 ± 0.11 | -0.286 ± 0.14 |
| AAGAAGCAAUAUUACGACAG | -2.2 ± 0.11 | -0.487 ± 0.1 |
| AAGAAGCAAUAUUACGACUU | -0.363 ± 0.061 | -0.819 ± 0.078 |
| AAGAAGCAAUAUUACGAGUA | -0.78 ± 0.26 | -1.44 ± 0.21 |
| AAGAAGCAAUAUUACGCAGA | -2.35 ± 0.17 | -1.5 ± 0.11 |
| AAGAAGCAAUAUUACGCCAU | -2.82 ± 0.24 | -2.62 ± 0.27 |
| AAGAAGCAAUAUUACGCCCA | -0.613 ± 0.21 | -1.85 ± 0.44 |
| AAGAAGCAAUAUUACGCCGA | -0.879 ± 0.12 | -0.757 ± 0.15 |
| AAGAAGCAAUAUUACGCCUA | -0.339 ± 0.12 | -0.209 ± 0.13 |
| AAGAAGCAAUAUUACGCGAC | -3.25 ± 0.24 | -1.53 ± 0.13 |
| AAGAAGCAAUAUUACGCGAG | -0.936 ± 0.081 | -0.561 ± 0.1 |
| AAGAAGCAAUAUUACGCGUA | -1.39 ± 0.099 | -0.914 ± 0.082 |
| AAGAAGCAAUAUUACGGAGC | -3.35 ± 0.24 | -2.66 ± 0.23 |
| AAGAAGCAAUAUUACGGAUU | -1.37 ± 0.097 | -0.421 ± 0.12 |
| AAGAAGCAAUAUUACGGGUA | -2.35 ± 0.16 | -0.422 ± 0.12 |

| Sequence | self-splicing fitness (ln) (30 °C) | self-splicing fitness (ln) (37 °C) |
| --- | --- | --- |
| AAGAAGCAAUAUUACGGGUU | -1.57 ± 0.15 | -1.41 ± 0.14 |
| AAGAAGCAAUAUUACGUAUU | -2.28 ± 0.16 | -1.43 ± 0.12 |
| AAGAAGCAAUAUUACGUCCG | -0.7 ± 0.073 | -0.283 ± 0.099 |
| AAGAAGCAAUAUUACGUCCU | -0.0351 ± 0.12 | 0.363 ± 0.16 |
| AAGAAGCAAUAUUACGUCGU | -1.31 ± 0.058 | -0.567 ± 0.073 |
| AAGAAGCAAUAUUACGUCUC | -2.04 ± 0.12 | -1.69 ± 0.16 |
| AAGCAGCAAUAUUACGAACA | -1.56 ± 0.13 | -0.603 ± 0.13 |
| AAGCAGCAAUAUUACGAACG | -2.31 ± 0.094 | -0.98 ± 0.11 |
| AAGCAGCAAUAUUACGAACU | -0.292 ± 0.07 | -1 ± 0.069 |
| AAGCAGCAAUAUUACGACCA | -0.635 ± 0.12 | -0.265 ± 0.14 |
| AAGCAGCAAUAUUACGAGAG | -4.01 ± 0.29 | -2.49 ± 0.25 |
| AAGCAGCAAUAUUACGCACC | -0.735 ± 0.085 | 0.0945 ± 0.09 |
| AAGCAGCAAUAUUACGCAUA | -2.01 ± 0.11 | -0.237 ± 0.1 |
| AAGCAGCAAUAUUACGCCCA | -0.461 ± 0.15 | 0.244 ± 0.23 |
| AAGCAGCAAUAUUACGCUGU |  | -2.7 ± 0.23 |
| AAGCAGCAAUAUUACGGACC | -1.42 ± 0.14 | -0.369 ± 0.17 |
| AAGCAGCAAUAUUACGGAUA | -2.22 ± 0.2 | -1.72 ± 0.15 |
| AAGCAGCAAUAUUACGGCUC | -1.67 ± 0.093 | -0.463 ± 0.14 |
| AAGCAGCAAUAUUACGGGCA | -0.552 ± 0.072 | -0.789 ± 0.077 |
| AAGCAGCAAUAUUACGGGCC | -1.76 ± 0.15 | -1.53 ± 0.15 |
| AAGCAGCAAUAUUACGGGGA | -3.53 ± 0.33 | -1.11 ± 0.13 |
| AAGCAGCAAUAUUACGGUAC | -3.08 ± 0.23 | -2.49 ± 0.22 |
| AAGCAGCAAUAUUACGUACG | -2.18 ± 0.12 | -0.645 ± 0.13 |
| AAGCAGCAAUAUUACGUACU | 0.254 ± 0.1 | 0.172 ± 0.11 |
| AAGCAGCAAUAUUACGUAGU | -2.61 ± 0.1 | -2.47 ± 0.14 |
| AAGCAGCAAUAUUACGUAUU | -2.12 ± 0.058 | -1.43 ± 0.082 |

| Sequence | self-splicing fitness (ln) (30 °C) | self-splicing fitness (ln) (37 °C) |
| --- | --- | --- |
| AAGCAGCAAUAUUACGUCUA | -1 ± 0.053 | -1.53 ± 0.062 |
| AAGCAGCAAUAUUACGUUCU | -0.454 ± 0.056 | 0.0556 ± 0.076 |
| AAGGAGCAAUAUUACGAGCC | -0.997 ± 0.17 |  |
| AAGGAGCAAUAUUACGAGCG | -2.53 ± 0.2 | -2.19 ± 0.49 |
| AAGGAGCAAUAUUACGAUCG | -1.99 ± 0.19 | -1.8 ± 0.27 |
| AAGGAGCAAUAUUACGCAAU | -2.67 ± 0.17 | -1.71 ± 0.19 |
| AAGGAGCAAUAUUACGCAGG | -3.65 ± 0.32 | -2.22 ± 0.39 |
| AAGGAGCAAUAUUACGCCCA | -1.88 ± 0.27 | -1.46 ± 0.24 |
| AAGGAGCAAUAUUACGCGCU | -3.5 ± 0.44 | -1.5 ± 0.4 |
| AAGGAGCAAUAUUACGCUCC |  | -1.7 ± 0.47 |
| AAGGAGCAAUAUUACGCUGG | -2.18 ± 0.24 | -2.24 ± 0.31 |
| AAGGAGCAAUAUUACGGAAC |  | -2.52 ± 0.36 |
| AAGGAGCAAUAUUACGGAUC | -2.64 ± 0.36 |  |
| AAGGAGCAAUAUUACGGCAG | -2.86 ± 0.33 | -1.75 ± 0.32 |
| AAGGAGCAAUAUUACGGUAG | -3.82 ± 0.29 | -2.75 ± 0.26 |
| AAGGAGCAAUAUUACGGUGU | -3.44 ± 0.24 | -1.77 ± 0.19 |
| AAGGAGCAAUAUUACGGUUA | -2.54 ± 0.34 |  |
| AAGGAGCAAUAUUACGUAAA | -2.81 ± 0.32 | -0.663 ± 0.24 |
| AAGGAGCAAUAUUACGUCUU | -1.9 ± 0.09 | -1.14 ± 0.13 |
| AAGGAGCAAUAUUACGUGCU |  | -2.92 ± 0.47 |
| AAGGAGCAAUAUUACGUUUU | -3.02 ± 0.22 | -1.94 ± 0.2 |
| AAGUAGCAAUAUUACGAAUA | -3.24 ± 0.34 | -2.29 ± 0.23 |
| AAGUAGCAAUAUUACGACAG | -2.86 ± 0.18 | -1.66 ± 0.21 |
| AAGUAGCAAUAUUACGACCG | -1.89 ± 0.086 | -1.35 ± 0.12 |
| AAGUAGCAAUAUUACGACGA | 0.0522 ± 0.098 | 0.0374 ± 0.11 |
| AAGUAGCAAUAUUACGACUC | 0.858 ± 0.25 | 0.537 ± 0.24 |

— the supplement of paper PMC7877785
